The source of these data is publication PMC3401474.

Targets include rat HER2 (rHER2) (rat, UniProt P06494 23-654); human EphA2 (hEphA2) (human, UniProt P29317 24-537); human HER2 (hHER2) (human, UniProt P04626 23-652).
Holding throughout (assay): SPR
Background: In SPR one partner is held on a chip, and binding of the other changes the refractive index at the surface.

rat HER2 (rHER2), sequence (P06494 23-654): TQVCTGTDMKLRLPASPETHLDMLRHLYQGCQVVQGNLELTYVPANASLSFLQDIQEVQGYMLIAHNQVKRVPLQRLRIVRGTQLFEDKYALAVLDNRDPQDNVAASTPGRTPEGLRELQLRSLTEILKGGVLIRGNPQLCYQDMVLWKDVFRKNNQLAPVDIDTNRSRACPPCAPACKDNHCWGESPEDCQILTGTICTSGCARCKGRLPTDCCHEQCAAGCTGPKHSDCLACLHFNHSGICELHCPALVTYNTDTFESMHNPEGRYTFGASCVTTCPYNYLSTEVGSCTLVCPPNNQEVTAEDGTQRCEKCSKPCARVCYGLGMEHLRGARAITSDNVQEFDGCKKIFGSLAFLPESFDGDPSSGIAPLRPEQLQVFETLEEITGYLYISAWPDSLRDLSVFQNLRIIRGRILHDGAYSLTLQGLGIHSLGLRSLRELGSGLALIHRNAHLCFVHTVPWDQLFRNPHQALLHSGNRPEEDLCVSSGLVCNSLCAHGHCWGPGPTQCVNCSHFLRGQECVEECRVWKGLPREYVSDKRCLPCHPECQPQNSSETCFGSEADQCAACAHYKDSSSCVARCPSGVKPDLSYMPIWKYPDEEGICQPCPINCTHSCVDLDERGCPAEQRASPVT
human EphA2 (hEphA2), sequence (P29317 24-537): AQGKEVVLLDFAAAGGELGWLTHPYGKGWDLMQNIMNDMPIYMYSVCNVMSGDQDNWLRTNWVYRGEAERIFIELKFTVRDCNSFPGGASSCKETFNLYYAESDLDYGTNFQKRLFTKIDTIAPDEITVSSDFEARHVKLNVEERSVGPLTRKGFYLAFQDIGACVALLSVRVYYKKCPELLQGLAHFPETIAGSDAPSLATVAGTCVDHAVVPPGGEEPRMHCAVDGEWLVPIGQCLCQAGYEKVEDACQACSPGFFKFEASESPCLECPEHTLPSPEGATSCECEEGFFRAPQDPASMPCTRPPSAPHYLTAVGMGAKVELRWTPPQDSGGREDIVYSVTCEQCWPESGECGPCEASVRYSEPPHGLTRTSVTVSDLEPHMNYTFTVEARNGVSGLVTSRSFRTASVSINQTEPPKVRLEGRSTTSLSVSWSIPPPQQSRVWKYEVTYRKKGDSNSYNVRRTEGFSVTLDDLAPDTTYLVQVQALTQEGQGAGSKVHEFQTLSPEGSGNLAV

B1: E1 (XNA)
RNA: GGGAGGACGAUGCGGUCCUGUCGUCUGUUCGUCCCCAGACGACUCGCCCGA
modifications: 2'-fluoro C and U (2'-OH A and G)
By Kd is commonly meant the equilibrium constant for the complex coming apart. B1: the Kd with rat HER2 (rHER2) was determined as 60.8 nM.

B2: B1 (XNA)
RNA: GGGAGGACGAUGCGGUCUGUUGUGCUUGAUAUGCCCCAGACGACUCGCCCGA
modifications: 2'-fluoro C and U (2'-OH A and G)
Turning to B2, the binding result with human EphA2 (hEphA2) and in the data set with human HER2 (hHER2) was “no binding” in each case. In the data set with rat HER2 (rHER2), this molecule yielded a Kd of 85.2 nM.

B3: C1 (XNA)
RNA: GGGAGGACGAUGCGGCUGUCUACCUUCUACUGCCGCAGACGACUCGCCCGA
modifications: 2'-fluoro C and U (2'-OH A and G)
In the case of B3, the binding result in the data set with human EphA2 (hEphA2) and in the data set with human HER2 (hHER2) was “no binding” each time. In the data set with rat HER2 (rHER2), this molecule registered a Kd of 45.8 nM.
